For the assay, the target named is Glycerol dehydrogenase from Klebsiella pneumoniae (encoded by gldA, strain MGH78578) (Klebsiella pneumoniae strain MGH78578). Nature of the assay: SEC; analytical Superdex-200 10/300 GL, 20 mM Tris-HCl, 0.1 mM TCEP, 200 mM NaCl, pH 8.0, 0.5 ml/min; 200 ul of purified KpGlyDH at 4.94 mg/ml; masses from a standard curve of reference proteins; octamer and hexadecamer in equilibrium. A general note: SEC sorts molecules by how far they enter the pores of the column.

Several values for one entry are separate records, joined by “and”; a condition that tells them apart may be missing. Equal entries are not always repeated.

Turning to “Glycerol dehydrogenase from Klebsiella pneumoniae (encoded by gldA, strain MGH78578) (enzyme)”, the stoichiometry N is 8 and 16.

As a reminder, the stoichiometry N is a count of units in the complex or per binding partner.

For the origin of these results see PMC9728185.
